Several values for one entry are separate records, joined by “and”; a condition that tells them apart may be missing. Equal values may be shown once. Read-outs that look alike come from different tables or passages of the source.
Key:
[1] = target: T1, HER2-Fc (UniProt P04626 23-652); assay: ELISA, plates coated with 10 µg/ml HER2-Fc, anti-myc IgG detection
T1 construct: Coated at 10 µg/ml on ELISA plates; also called HER2 antigen; immobilised HER2 target antigen (ELISA); not shown: Fc part

[2] = target: T1, HER2-Fc; assay: ELISA, plates coated with 10 µg/ml HER2-Fc, anti-T7 peroxidase detection
Procedure: (§1) All proteins were detected using the C-terminal T7 Tag which was not expected to be chemically modified (no lysines present). 96-well Immunosorb ELISA plates were coated with 10 μg/ml HER2-Fc in PBS, followed by the test samples, anti-T7 peroxidase conjugate. Extensive PBS washes were in between each layer and detection was with BM-Blue substrate.

[3] = target: T1, HER2-Fc; assay: ELISA on plates coated with 10 µg/ml HER2-Fc, detection anti-T7 peroxidase conjugate, absorption at 450 nm
Procedure: as §1

[4] = target: T2, HER2 immobilised on a Biacore chip (UniProt P04626 23-652, limits assumed); assay: Biacore SPR, HER2 amine-coupled to the chip; Acetate conjugate, DAR 16
T2 construct: also called immobilised HER2 target antigen (Biacore SPR); HER2 chip
Procedure: (§2) A standard amine-coupling method was used to prepare all Biacore surfaces (CM5 or CM3), as follows. Flow cells were activated individually by injecting a freshly mixed solution of 0.2M EDC in 0.05 M NHS at 30 μl/min. […] Excess NHS ester was deactivated using a 1 M ethanolamine solution. […] The dissociation time was extended to 3600 s for the highest concentration. Surfaces were regenerated with 45 s injection of MgCl₂ […].

[5] = target: T2, HER2 immobilised on a Biacore chip; assay: Biacore SPR, HER2 amine-coupled to the chip
[6] = target: T1, HER2-Fc; assay: ELISA on plates coated with 10 µg/ml HER2-Fc, detection anti-T7 peroxidase conjugate, absorption at 450 nm; remark: listed apart in the source
Procedure: (§3) The DAR was determined by AAA as before (Table 11A & B), this time following the release of the di-proline fragment to identify and quantify the P5-based drug. […] All proteins were detected using the C-terminal T7 Tag which was not expected to be chemically modified (no lysines present). 96-well Immunosorb ELISA plates were coated with 10 μg/ml HER2-Fc in PBS, followed by the test samples, anti-T7-peroxidase conjugate. Extensive PBS/tween-20 and PBS washes were in between each layer and detection was with BM-Blue substrate. […] The DARs were verified by AAA (Tables 11A and 11B).

[7] = target: T1, HER2-Fc; assay: ELISA, plates coated with 10 µg/ml HER2-Fc, anti-T7 peroxidase detection; unmodified scFv (TCT), ELISA
Procedure: as §3

[8] = target: T1, HER2-Fc; assay: ELISA, plates coated with 10 µg/ml HER2-Fc, anti-T7 peroxidase detection; scFv TCT-P5C5(1), 8 drugs loaded, ELISA
Procedure: as §3

[9] = target: T2, HER2 immobilised on a Biacore chip; assay: Biacore SPR, HER2 amine-coupled to the chip; unmodified scFv (TCT1067)
Procedure: as §2

[10] = target: T2, HER2 immobilised on a Biacore chip; assay: Biacore SPR, HER2 amine-coupled to the chip; MMAF-C5 conjugate, DAR 5.2
Procedure: as §2

[11] = target: T2, HER2 immobilised on a Biacore chip; assay: Biacore SPR, HER2 amine-coupled to the chip; MMAF-C5 conjugate, DAR 7.1
Procedure: as §2

[12] = target: T2, HER2 immobilised on a Biacore chip; assay: Biacore SPR, HER2 amine-coupled to the chip; Auristatin-F-C5 conjugate, DAR 3.3
Procedure: as §2

[13] = target: T2, HER2 immobilised on a Biacore chip; assay: Biacore SPR, HER2 amine-coupled to the chip; Auristatin-F-C5 conjugate, DAR 5.65
Procedure: as §2

[14] = target: T2, HER2 immobilised on a Biacore chip; assay: Biacore SPR, HER2 amine-coupled to the chip; Auristatin-F-C5 conjugate, DAR 11.9
Procedure: as §2

[15] = target: T2, HER2 immobilised on a Biacore chip; assay: Biacore SPR, HER2 amine-coupled to the chip; MMAE-PAB-Cit-Val-dPEG9 conjugate, DAR 8.6
Procedure: as §2

[16] = target: T2, HER2 immobilised on a Biacore chip; assay: Biacore SPR, HER2 amine-coupled to the chip; DM1-dPEG12 conjugate, DAR 8
Procedure: as §2

[17] = target: T2, HER2 immobilised on a Biacore chip; assay: Biacore SPR, HER2 amine-coupled to the chip; DM1-dPEG12 conjugate, DAR 7
Procedure: as §2

Molecule: C6.5 scFv, non-SPDP modified but reduced control
- Kd [1]: 42 nM

Molecule: C6.5 scFv-SPDP conjugate, linker to antibody ratio 5.4, reduced with TCEP
- Kd [1]: 24.9 nM

B1: scFv (TCT)-Cemadotin ADC sample 3 (DAR 11) (scFv)
scFv: SGSGGSGQVQLVQSGAEVKKPGESLKISCKGSGYSFTSYWIAWVRQMPGKGLEYMGLIYPGDSDTKYSPSFQGQVTISVDKSVSTAYLQWSSLKPSDSAVYFCARHDVGYCSSSNCAAWPEYFQHWGQGTLVTVSSGGGGSGGGGSGGGGSQSVLTQPPSVSAAPGQKVTISCSGSSSNIGNNYVSWYQQLPGTAPKLLIYGHTNRPAGVPDRFSGSKSGTSASLAISGFRSEDEADYYCAAWDDSLSGWVFGGGTKLTVLMASMTGGQQMG
modifications: Cemadotin on all but one of the surface lysine residues (11/12), DAR 10.96 by AAA
notes: also called TCT-Cem ADC3; TCT-Cemadotin conjugate 3
- Kd [2]: 27.5 nM
- EC50 (read off the curve) [3]: ~40 nM

B2: scFv (TCT1067)-Acetate DAR 16 (scFv)
scFv: SGSGGSGQVQLVQSGAEVKKPGESLKISCKGSGYSFTSYWIAWVRQMPGKGLEYMGLIYPGDSDTKYSPSFQGQVTISVDKSVSTAYLQWSSLKPSDSAVYFCARHDVGYCTDRTCAAWPEWLGVWGQGTLVTVSSGGGGSGGGGSGGGGSQSVLTQPPSVSAAPGQKVTISCSGSSSNIGNNYVSWYQQLPGTAPKLLIYGHTNRPAGVPDRFSGSKSGTSASLAISGFRSEDEADYYCASWDYTLSGWVFGGGTKLTVLMASMTGGQQMG
modifications: acetyl groups (from Acetate-NHS) on lysines, N-terminal amine and further residues, 16 additions by LC-MS
notes: also called TCT1067-acetate conjugate 2
- Kd [4]: 0.021 nM
- koff [5]: 7.64e-05 s⁻¹
- kon [5]: 3.63e+06 M⁻¹ s⁻¹

B3: scFv (TCT) (scFv)
scFv: B1 scFv
notes: Anti-HER2 C6.5 scFv with residual Ser, GSGGSG linker and C-terminal T7 tag; also called cleaved TCT; unmodified scFv (TCT)
- Kd [5]: 1.49 nM
- koff [5]: 0.00417 s⁻¹
- kon [5]: 2.8e+06 M⁻¹ s⁻¹
- EC50 (read off the curve) [6]: ~7 nM
- Kd [6]: 6.97 nM
- Kd [2]: 2.5 nM
- Kd [7]: 7 nM
- EC50 (read off the curve) [3]: 2 to 3 nM

B4: scFv (TCT)-Acetate DAR 15 (scFv)
scFv: B1 scFv
modifications: acetyl groups (from Acetate-NHS) on lysines, N-terminal amine and further residues, 15 additions by LC-MS
notes: also called TCT-acetate conjugate 1
- Kd [5]: 2.9 nM
- koff [5]: 0.0171 s⁻¹
- kon [5]: 5.93e+06 M⁻¹ s⁻¹

B5: scFv (TCT)-MMAF-C5 ADC 1 (DAR 5.6) (scFv)
scFv: B1 scFv
modifications: MMAF-C5 (from MMAF-C5-NHS, compound 78) on lysine residues; DAR 6.64 by AAA, 4.5 by MS, average 5.6
notes: also called scFv (TCT)-MMAF-C5 1 DAR 5.6; scFv (TCT)-MMAF-C5, DAR 6.6
- Kd [5]: 5.4 nM
- koff [5]: 0.0042 s⁻¹
- kon [5]: 770000 M⁻¹ s⁻¹

B6: scFv (TCT)-MMAF-C5 ADC 2 (DAR 6.8) (scFv)
scFv: B1 scFv
modifications: MMAF-C5 on lysine residues; DAR 8.0 by AAA, 5.5 by MS, average 6.8
notes: also called scFv (TCT)-MMAF-C5 DAR 6.8; scFv (TCT)-MMAF DAR 8
- Kd [5]: 3.6 nM
- koff [5]: 0.0042 s⁻¹
- kon [5]: 1.2e+06 M⁻¹ s⁻¹

B7: scFv TCT-P5C5(1) (DAR 8) (scFv)
scFv: B1 scFv
modifications: P5C5 (from P5C5-NHS, compound 6) on lysine residues, DAR 8.17 by AAA
notes: also called scFv (TCT)-P5C5, DAR = 8; compound 71
- EC50 (read off the curve) [6]: 10 to 20 nM
- Kd [6]: 13 nM
- Kd [8]: 13 nM

B8: scFv (TCT)-Cemadotin ADC sample 1 (DAR 3.9) (scFv)
scFv: B1 scFv
modifications: Cemadotin (from Cemadotin-NHS, compound 2) on lysine residues, average DAR 3.9 by AAA
notes: also called TCT-Cem ADC1; TCT-Cemadotin conjugate 1
- Kd [2]: 3.3 nM
- EC50 (read off the curve) [3]: ~4 nM

B9: scFv (TCT)-Cemadotin ADC sample 2 (DAR 8.2) (scFv)
scFv: B1 scFv
modifications: Cemadotin on lysine residues, average DAR 8.2 by AAA
notes: also called TCT-Cem ADC2; TCT-Cemadotin conjugate 2
- Kd [2]: 15.5 nM
- EC50 (read off the curve) [3]: ~20 nM

B10: scFv (TCT1067) (scFv)
scFv: B2 scFv
notes: also called unmodified scFv (TCT1067)
- koff [5]: 3.7e-05 s⁻¹ and 3.69e-05 s⁻¹
- kon [5]: 3.9e+06 M⁻¹ s⁻¹ and 3.88e+06 M⁻¹ s⁻¹
- Kd [9]: 0.0095 nM

B11: scFv (TCT1067)-MMAF-C5 ADC 1 (DAR 5.2) (scFv)
scFv: B2 scFv
modifications: MMAF-C5 on lysine residues; DAR 6.4 by AAA, 4.0 by MS, average 5.2
notes: also called scFv (TCT1067)-MMAF-C5 DAR 5.2; scFv (TCT1067)-MMAF-C5, DAR 6.4
- Kd [10]: 0.0196 nM
- koff [10]: 3.4e-05 s⁻¹
- kon [10]: 1.8e+06 M⁻¹ s⁻¹

B12: scFv (TCT1067)-MMAF-C5 ADC 2 (DAR 7.1) (scFv)
scFv: B2 scFv
modifications: MMAF-C5 on lysine residues; DAR 8.6 by AAA, 5.5 by MS, average 7.1
notes: also called scFv (TCT1067)-MMAF DAR 8.7
- Kd [11]: 0.0038 nM
- koff [11]: 1.7e-05 s⁻¹
- kon [11]: 4.6e+06 M⁻¹ s⁻¹

B13: scFv (TCT1067)-P5-C5 DAR 10.9 (scFv)
scFv: B2 scFv
modifications: P5-C5 on lysine residues; DAR 10.4 by AAA, 11.7 by MS, overall average 10.9
notes: also called TCT1067-P5C5 ADC 1; compound 71
- Kd [5]: 0.302 nM
- koff [5]: 7.13e-05 s⁻¹
- kon [5]: 236000 M⁻¹ s⁻¹

B14: scFv (TCT1067)-Auristatin-F-C5 DAR 3.3 (scFv)
scFv: B2 scFv
modifications: Auristatin F-C5 on lysine residues; DAR 3.64 by AAA, 2.9 by MS, average 3.3
notes: also called TCT1067-AF-C5 ADC 1
- Kd [12]: 0.0328 nM
- koff [5]: 1.82e-05 s⁻¹
- kon [5]: 556000 M⁻¹ s⁻¹

B15: scFv (TCT1067)-Auristatin-F-C5 DAR 5.65 (scFv)
scFv: B2 scFv
modifications: Auristatin F-C5 on lysine residues; DAR 6.31 by AAA, 4.98 by MS, average 5.65
notes: also called TCT1067-AF-C5 ADC2
- koff [5]: 1.35e-05 s⁻¹
- kon [5]: 336000 M⁻¹ s⁻¹
- Kd [13]: 0.0403 nM

B16: scFv (TCT1067)-Auristatin-F-C5 DAR 11.9 (scFv)
scFv: B2 scFv
modifications: Auristatin F-C5 on lysine residues; DAR 13.4 by AAA, 10.4 by MS, average 11.9
notes: also called TCT1067-AF-C5 ADC 3
- koff [5]: 1.76e-05 s⁻¹
- kon [5]: 21700 M⁻¹ s⁻¹
- Kd [14]: 0.81 nM

B17: scFv (TCT1067)-MMAE-PAB-Cit-Val-dPEG9 conjugate, DAR 8.6 (scFv)
scFv: B2 scFv
modifications: MMAE-PAB-Cit-Val-dPEG9 (from compound 86) on lysine residues; DAR 9.6 by AAA, 7.5 by LC-MS, average 8.6
notes: also called TCT1067-MMAE ADC1
- koff [5]: 2.23e-05 s⁻¹
- kon [5]: 22100 M⁻¹ s⁻¹
- Kd [15]: 1 nM

B18: scFv (TCT1067)-DM1-dPEG12 DAR 8 (scFv)
scFv: B2 scFv
modifications: Maytansine DM1-dPEG12 (from compound 90) on lysine residues, DAR 8 by LC-MS
notes: also called TCT1067-Maytansine-PEG(12) DM1 ADC 2; scFv (TCT1067)-DM1 DAR 8
- Kd [16]: 2.48 nM
- koff [5]: 3.28e-05 s⁻¹
- kon [5]: 13200 M⁻¹ s⁻¹

B19: scFv (TCT1067)-DM1-dPEG12 DAR 7 (scFv)
scFv: B2 scFv
modifications: Maytansine DM1-dPEG12 on lysine residues, 6-8 additions, average DAR 7 by LC-MS
notes: also called TCT1067-Maytansine-PEG(12) DM1 ADC 1; compound 124
- koff [5]: 2.7e-05 s⁻¹
- kon [5]: 19500 M⁻¹ s⁻¹
- Kd [17]: 1.39 nM

— patent publication US20220233706A1 (ANTIKOR BIOPHARMA, published 2022)
